Measurements as given in PMC6335053.

Target: Human full-length GIRK4 (purified) (human) (UniProt P48544)
Sequence of UniProt P48544 (P48544 whole entry): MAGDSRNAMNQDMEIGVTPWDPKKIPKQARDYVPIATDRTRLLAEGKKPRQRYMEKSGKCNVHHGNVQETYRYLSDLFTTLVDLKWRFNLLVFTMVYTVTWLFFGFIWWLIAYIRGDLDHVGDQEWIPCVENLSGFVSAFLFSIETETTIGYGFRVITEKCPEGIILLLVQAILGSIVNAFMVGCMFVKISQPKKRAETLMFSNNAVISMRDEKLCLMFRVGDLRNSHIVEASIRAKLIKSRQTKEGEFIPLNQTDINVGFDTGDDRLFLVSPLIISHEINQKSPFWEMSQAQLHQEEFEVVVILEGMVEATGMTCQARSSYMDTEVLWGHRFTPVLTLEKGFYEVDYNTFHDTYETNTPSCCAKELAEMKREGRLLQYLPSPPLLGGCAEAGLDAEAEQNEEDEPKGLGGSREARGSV

inward GIRK current in planar lipid bilayers: increase on fusing further Gβγ vesicles to a bilayer holding GIRK and Gβγ at 1:0.1 (wt:wt), with 32 µM C8-PIP2 and 32 mM Na+: 5 fold
Substance: Human lipid-anchored Gβ1γ2 (from UniProt P62873 1-340; P59768 1-71) (complex)
